The values below come from paper PMC11026163, “Structural basis for excitatory neuropeptide signaling” (Nature Structural & Molecular Biology, 2024).

The target of test [1] is T1, FaNaC1 (WT) (Malacoceros fuliginosus, UniProt A0AAN0NP85).
T1 sequence (A0AAN0NP85 1-600): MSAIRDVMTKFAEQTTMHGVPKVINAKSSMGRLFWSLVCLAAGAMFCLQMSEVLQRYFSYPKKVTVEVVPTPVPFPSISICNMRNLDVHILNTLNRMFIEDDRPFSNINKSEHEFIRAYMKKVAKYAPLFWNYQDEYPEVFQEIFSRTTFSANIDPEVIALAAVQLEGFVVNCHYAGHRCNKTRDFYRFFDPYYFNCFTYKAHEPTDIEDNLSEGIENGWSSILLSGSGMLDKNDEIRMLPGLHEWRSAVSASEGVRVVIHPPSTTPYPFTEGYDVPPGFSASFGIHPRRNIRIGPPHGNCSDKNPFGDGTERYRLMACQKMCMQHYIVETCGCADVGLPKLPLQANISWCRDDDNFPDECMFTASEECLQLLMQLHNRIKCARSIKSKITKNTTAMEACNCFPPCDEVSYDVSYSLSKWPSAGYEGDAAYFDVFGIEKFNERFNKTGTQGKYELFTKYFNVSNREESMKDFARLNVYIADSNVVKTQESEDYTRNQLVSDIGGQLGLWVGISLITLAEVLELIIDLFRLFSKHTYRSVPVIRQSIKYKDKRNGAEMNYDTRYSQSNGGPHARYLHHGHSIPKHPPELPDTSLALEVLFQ
Description: TEVC, diminazene block of peak and sustained FMRFa-gated current, WT FaNaC1 in oocytes. Type of test: cell-based. Conditions: per oocyte. The protocol:
(§1) FaNaC1 in a modified pSP64 plasmid vector (Supplementary Notes) was used for mutagenesis and messenger RNA preparation and injection into stage V/VI Xenopus laevis oocytes (EcoCyte Bioscience). Mutants were generated by partly overlapping primers (Supplementary Table 1 and ref. [75]), and channel-coding inserts were Sanger sequenced. […] NaCl was replaced with KCl, NH4Cl or H3CNH3Cl (Merck) where appropriate.
(§2) Current amplitudes were measured in Clampfit v.11 (Molecular Devices). N values refer to experiments performed on different oocytes. Data were analyzed in Prism v.9 (GraphPad) and fit with Prism v.9 variable-slope four-parameter nonlinear regression, yielding half-maximal effective activating/inhibiting concentrations (EC50/IC50). […] Mean ± standard error of the mean (s.e.m.) EC50/IC50 from fits to individual cells reported in Main. Currents shown in figures are further filtered (20 Hz) and decimated (50×) in Clampfit 11 for smaller file size.
(a) 1 μM FMRF-gated currents with and without diminazene in an oocyte expressing wildtype (WT) FaNaC1. […] Scale bars: x, 5 s; y, 0.2 µA. (b) Mean ± SEM normalized peak (n = 4 oocytes) and sustained (n = 7 oocytes) current amplitude in the presence of increasing concentrations of diminazene. […] Scale bars: x, 5 s; y, 0.1 µA. Source data

The next test has as its system FaNaC1 D0′N. As to the kind of experiment: TEVC, diminazene block of sustained FMRFa-gated current at mutant channel. Type of test: cell-based, Malacoceros fuliginosus. The settings on record: block of Isus. As for the experimental part:
(§3) Fig. 5 FaNaC1/FMRFa/diminazene structure. a, Pore-lining residues in FaNaC1/FMRFa/diminazene structure (left) and pore radius for all four cryo-EM structures calculated in HOLE[53] (right). b, Top, diminazene structure (ionized at pH 7.4). Middle, peak (Ipeak) and sustained (Isus) FMRFa (3 µM)-gated currents through FaNaC1 in the absence and presence of diminazene (10 μM). Bottom, % block (individual data points, n = 3 oocytes at −60 mV, 4 at 10 mV, 3 at 80 mV; and means, bars) of Isus by diminazene at three different membrane potentials. c, Magnified view of FaNaC1/FMRFa/diminazene model, showing nonprotein cryo-EM density in the pore as mesh. d, Concentration-dependent block of Isus by diminazene at WT and mutant channels (mean ± s.e.m., n = 4 oocytes, except D0′N—see Source data). e, FMRFa-gated current amplitude (Vm = −60 mV; individual data points (n = 5) and means, bars) in extracellular solutions based on different cations. Source data
(§4) Given the drug’s effect on pore radius and its voltage-dependent block of currents, we hypothesized that this nonprotein density derives from partially unresolved or low occupancy diminazene molecules. […] We also generated mutant G2′S channels but saw no currents in oocytes injected with these RNAs (n = 8 over two batches of ooyctes). An additional helical turn higher, the S-1′A substitution caused constitutive current, as expected for mutating the TM2a-1′ degenerin position, but had no effect on diminazene potency (Fig. 5d and Extended Data Fig. 9c). […] Thus, we interpret our FaNaC1/FMRFa/diminazene structure as an FMRFa-gated, diminazene-blocked, open-channel conformation.
as §1
(§5) Oocytes were clamped at −60 mV unless otherwise indicated, and currents were measured by two-electrode voltage clamp, as previously described, using a Warner OC-725C amplifier and HEKA LIH8 + 8 interface with Patchmaster 2x90.4 software (HEKA), sampling at 500 Hz or 1 kHz and filtering at 100 Hz. Current amplitudes were measured in Clampfit v.11 (Molecular Devices). N values refer to experiments performed on different oocytes. Data were analyzed in Prism v.9 (GraphPad) and fit with Prism v.9 variable-slope four-parameter nonlinear regression, yielding half-maximal effective activating/inhibiting concentrations (EC50/IC50). In establishing EC50 values for activation by FMRFa, we waited 4 min between applications of increasing concentrations. […]

A further test deals with FaNaC1 G3′S. The test is described as above. The format is cell-based, Malacoceros fuliginosus. The settings on record: block of Isus. As for the experimental part: as §3, §4, §1, §5
The subject of another test is FaNaC1 G6′S. The description is as above. Type of test: cell-based, Malacoceros fuliginosus. The settings on record: block of Isus. As for the experimental part: as §3, §4, §1, §5
Another test relates to FaNaC1 S-1′A. The description is as above. Conditions: block of Isus. The format is cell-based, Malacoceros fuliginosus. As for the experimental part: as §3, §4, §1, §5
In test [2] the test system is FaNaC1 H297S. As to the kind of experiment: TEVC, diminazene block of constitutive current of H297S channels. The format is cell-based, Malacoceros fuliginosus. The settings on record: 30 µM diminazene, mean ± s.e.m., n = 7. The text has this:
(§6) Fig. 6 FaNaC1 gating mechanism. a, Overlay of ligand-free FaNaC1 (blue) and FaNaC1/FMRFa/diminazene (orange) structures. Adjacent subunit in darker shades. b, Magnified views of boxed regions, left to right: ligand binding site; palm domain; β-turn–TM2a/TM1 interactions. Selected side chains shown as sticks and labeled. c, Illustration of one subunit (left subunit in a) moving during gating: peripheral rolling, internal stasis and β-turn moving outward to allow channel expansion. α6 helix from adjacent subunit in gray. d, Top left and bottom, example recordings from oocytes expressing mutant H297S FaNaC1 channels (scale bars, x, 30 s; y, 1 µA). Top right, mean (± s.e.m., n = 5 oocytes) responses of H297S channels to FMRFa and ASSFVRIa normalized to maximum FMRFa-gated current (I/Imax-FMRFa), compared to WT channels. […]
(§7) Oocytes were clamped at −60 mV unless otherwise indicated, and currents were measured by two-electrode voltage clamp, as previously described, using a Warner OC-725C amplifier and HEKA LIH8 + 8 interface with Patchmaster 2x90.4 software (HEKA), sampling at 500 Hz or 1 kHz and filtering at 100 Hz. Current amplitudes were measured in Clampfit v.11 (Molecular Devices). […] Data were analyzed in Prism v.9 (GraphPad) and fit with Prism v.9 variable-slope four-parameter nonlinear regression, yielding half-maximal effective activating/inhibiting concentrations (EC50/IC50). […]

For the next test, the system named is ENaCs. The settings on record: ENaCs possess asparagine at the 0′ position; cited from earlier work. The text has this:
Given the drug’s effect on pore radius and its voltage-dependent block of currents, we hypothesized that this nonprotein density derives from partially unresolved or low occupancy diminazene molecules. […] We ...

Test [3] addresses T1, FaNaC1 (WT). Description: Two-electrode voltage clamp, peptide-gated currents in Xenopus laevis oocytes expressing WT FaNaC1. The format is cell-based. As for the experimental part:
as §1, §2

Test [4] relates to FaNaC1 H297S. As to the kind of experiment: TEVC, FMRFa- and ASSFVRIa-gated currents at H297S channels. Type of test: cell-based, Malacoceros fuliginosus. The settings on record: normalized to maximum FMRFa-gated current.
Text: as §6, §7

The target of test [5] is FMRFamide-gated sodium channel 1 (FaNaC1) from Malacoceros fuliginosus (Malacoceros fuliginosus). Description: cryo-EM structure; FaNaC1 in POPC:POPG (3:1) lipid nanodiscs, 20 mM HEPES pH 7.6, 150 mM NaCl; alone, or with FMRFa 30 µM or ASSFVRIa 100 µM added directly before freezing; C3 symmetry imposed.
Test [6] shares this target.
Test [7] deals with FaNaC1 F129A (Malacoceros fuliginosus).
Test [8] deals with FaNaC1 F129L (Malacoceros fuliginosus).
The target in test [9] is FaNaC1 F129Q (Malacoceros fuliginosus).
For test [10], the target named is FaNaC1 V122A (Malacoceros fuliginosus).
For test [11], the target named is FaNaC1 F129C (Malacoceros fuliginosus).
Test [12] addresses FaNaC1 F129C modified by MTSET (Malacoceros fuliginosus).
In test [13] the target is FaNaC1 F97C (Malacoceros fuliginosus).
Test [14] has as its target FaNaC1 F97C modified by MTSET (Malacoceros fuliginosus).
Test [15] deals with FaNaC1 M238C (Malacoceros fuliginosus).
The target of test [16] is FaNaC1 M238C modified by MTSET (Malacoceros fuliginosus).
The target in test [17] is FMRFamide-gated sodium channel 1 (FaNaC1) from Malacoceros fuliginosus (Malacoceros fuliginosus). This is another data set of the same source.
[18] abbreviates: [Diminazene] 1e-7 M, 1 μM FMRF-gated current.

Several values for one entry are separate records, joined by “and”; a condition that tells them apart may be missing. Equal values may be shown once. Non-standard residues stand in square brackets, D forms with d. No end group written: not given here. Cit = NC(=O)NCCC[C@H](N)C(=O)O

As for `N=C(N)c1ccc(/N=N/Nc2ccc(C(=N)N)cc2)cc1` [diminazene], the Remaining peak current was 0.9158 and 0.934 and 1.161 and 1.255 at FaNaC1 (WT) [1] (setting [18]); 0.5053 and 0.783 and 0.8871 and 0.9636 on FaNaC1 (WT) [1] ([Diminazene] 1e-6 M). In addition, the Remaining sustained current on FaNaC1 (WT) [1] (setting [18]) is 0.6522 and 0.7647 and 0.9533 and 0.9846 and 0.7407 and 0.6744. The “effect of mutation on diminazene potency” value in the test with FaNaC1 D0′N was “decreased diminazene potency approximately tenfold”; in the test with FaNaC1 G3′S, “modestly reduced”; with FaNaC1 G6′S, “drastically reduced”; with FaNaC1 S-1′A, “no effect”. Further, the “block of constitutive current” value in the test on FaNaC1 H297S [2] turned out to be 76 ± 5%. In the test with ENaCs, the sensitivity to diminazene entry is recorded as “insensitive”.
On to “ASSFVRI-NH2 [ASSFVRIa, product of the FVRIamide precursor in several annelids]”, for which, at FaNaC1 (WT) [3], the agonist type entry is “partial agonist”. For the same molecule, in the test with FaNaC1 H297S [4], the “relative efficacy at H297S compared to WT” value is “increased”.
For “FMRA–NH2 [FMRAa, FMRFa analog lacking the C-terminal F4 side chain]”, the activation of current entry on FaNaC1 (WT) [3] (100 μM peptide) is on record as “barely activating detectable currents”.
Turning to “FMRFamide-gated sodium channel 1 (FaNaC1) from Malacoceros fuliginosus (receptor)”, the stoichiometry N (as a rule, the number of molecules, sites or subunits per partner or assembly) in [5] was found to be 3.
As for “FVRI–NH2 [FVRIa, four C-terminal residues of ASSFVRIa]”, the “activity compared to parent peptide ASSFVRIa” value on FaNaC1 (WT) [3] is recorded as “very similar activity”.
Molecule H-FMRF-NH2 [FMRFamide (H-Phe-Met-Arg-Phe-NH2)] came in with an EC50 of FMRFa-gated current, two-electrode voltage clamp, Xenopus oocytes expressing WT FaNaC1 in test [6] of 850 nM. Also, the results for the EC50 of FMRFa-gated current, two-electrode voltage clamp, Xenopus oocytes in test [7] and in test [8] were 18000 nM and 9000 nM, respectively. This molecule also yielded a fold decrease of FMRFa potency (EC50 of gated current) against WT, two-electrode voltage clamp, Xenopus oocytes in [9] of 100 fold. Further, the EC50 of FMRFa-gated current, two-electrode voltage clamp, Xenopus oocytes (20-fold increase in potency) in test [10] was 40 nM. In addition, the EC50 of FMRFa-gated current without MTSET, two-electrode voltage clamp, Xenopus oocytes in [11] amounted to 5000 nM; in test [13], 250 nM; in test [15], 140 nM. The EC50 of FMRFa-gated current with MTSET, two-electrode voltage clamp, Xenopus oocytes in test [12] was over 10000 nM; in test [14], 4000 nM; in [16] it was 580 nM.
In [17], AMRF-NH2 [AMRF-NH2] yielded an EC50 of peptide-gated current, two-electrode voltage clamp, Xenopus oocytes expressing WT FaNaC1 of 300 nM.

B1: FM(citrulline)F-NH2 (peptide)
peptide: FM[Cit]F-NH2
modifications: N-terminus assumed
SMILES: CSCC[C@H](NC(=O)[C@@H](N)Cc1ccccc1)C(=O)N[C@@H](CCCNC(N)=O)C(=O)N[C@@H](Cc1ccccc1)C(N)=O
In test [17], B1 yielded an EC50 of peptide-gated current, two-electrode voltage clamp, Xenopus oocytes expressing WT FaNaC1 of 690 nM.
As to FMQF-NH2 [FMQF-NH2], the EC50 of peptide-gated current, two-electrode voltage clamp, Xenopus oocytes expressing WT FaNaC1 in test [17] was found to be 4500 nM.
